Data on 40 sequences can be found in the nanobody polyreactivity screen of Harvey et al. (2022).

The data set can be described thus: yeast display, Sf9 membrane polyspecificity reagent, FACS + sequencing; frameworks hold sequencing errors. A digest of the protocol:
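Synthetic nanobody libraries on Saccharomyces cerevisiae BJ5465 were galactose-induced for 36–48 hours, stained 1 hour at 4 °C with 10% biotinylated, detergent-solubilized Sf9 membrane reagent and enriched on streptavidin microbeads. FACS then separated cells into low and high (top ~1%) gates by anti-HA (expression) and streptavidin (reagent binding) fluorescence. Genes were colony-PCR amplified, MiSeq 2 × 250 sequenced and CDR-length filtered. A clone's polyreactivity label is that of its gate of origin.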
In the case of “QVQLVESGGGLVQAGGSLRLSCAASGITLIRYAMGWYRQAPGKERELVAAINSSGGNTYYADSVKGRFTISRDNAKNTVYLQMNSLKPEDTAVYYCAAKYILDIIGSLDYWGQGTQVTVSS”, the “polyreactivity (PSR sort gate)” value is on record as “low polyreactivity”.
For “QVQLVESGGGLVQAGGSLRLSCAASGITLKPNAMGWYRQAPGKERELVAAIDSGGSTNYADSVKGRFTISRDNAKNTVYLQMNSLKPEDTAVYYCAAPYQDRDLQVSYSTYEGGYWGQGTQVTVSS” the value was “low polyreactivity”.
Regarding “QVQLVESGGGLVQAGGSLRLSCAASGITLLGNAMGWYRQAPGTERELVAAISRRGGSTYYADSVKGRFTISRDNAKNTVYLQMNSLKPEDTAVYYCAADRYTVVYYRIFDYWGQGTQVTVSS”, the “polyreactivity (PSR sort gate)” value is “high polyreactivity”.
For “QVQLVESGGGLVQAGGSLRLSCAASGITLLYNAMGWSRQAPGKERELVAGITGRGGSTYYADSVKGRFTISRDNAKNTVYLQMNSLKPEDTAVYYCAATTDYRYVGRIVIRDEHWGQGTQVTVSS” the value was “low polyreactivity”.
In the case of “QVQLVESGGGLVQAGGSLRLSCAASGITLLYNAMGWYRQAPGKERELVAGITGRGGSTYYADSVKGRFTISRDNAKNTVYLQMNSLKPEDNAVYYCAATTDYRYVGRIVIRDDHWGHGTQVTVSS” it was “low polyreactivity”; in that of “QVQLVESGGGLVQAGGSLRLSCAASGITLPVYGKGWYRQAPGKERELVAVIDIVGITNYADSVKGRFTISRDNAKNTVYLQMNSLKPEDTAVYYCAKRYVYIADGGEYYYWGQGTQVTVSS”, “low polyreactivity”; in that of “QVQLVESGGGLVQAGGSLRLSCAASGITLQNNAMGWYRQAPGKERELVAAITGSGGSTYYADSVKGRFTISRDNAKNTVYLQMNSLKPEDTAVYYCATDGIFHLGVYTPYDYWGQGTQVTVSS”, “low polyreactivity”.
With “QVQLVESGGGLVQAGGSLRLSCAASGITLQYYAMGWYRQAPGKERQLVAGITSGGGTYYADSVKGRFTISRDNAKNTVYLQMNSLKPEDTAVYYCAARPWRSRYYGGLGRRFDYWGQGTQETVSS”, the “polyreactivity (PSR sort gate)” value was “high polyreactivity”.
“QVQLVESGGGLVQAGGSLRLSCAASGITLSSNAMGWYRQAPGKERELVAAITWRTDRTYYADSVKGRFTISRDNAKNTVYLQMNSLKPEDTAVDYCAARTTVSSARYDYWGQGTQVTVSS”: the “polyreactivity (PSR sort gate)” value is listed as “high polyreactivity”.
For “QVQLVESGGGLVQAGGSLRLSCAASGITLTPYAMGWYRQAPGKERELVAAISWSGGSTYYADSVKGRFTISRDNAKNTVYLQMNSLKPEDTAVYYCAAGPGQYTVYAGTIGEYDYWGQGTQVTVSS” the value was “high polyreactivity”; for “QVQLVESGGGLVQAGGSLRLSCAASGITLVRYAMGWNRKAPGKEREFVASITSGASTNYADSVKGRFTISRYNAKNTVYLQMNSLKPDDTAVYYCAAGPPSGGWWGGWYEYWGQGTQVTVSS”, “high polyreactivity”.
For “QVQLVESGGGLVQAGGSLRLSCAASGITLWQYAMGWYRQAPGKERELVAGITDTGDSTYYADSVKGRFTISRDNAKNTVYLQMNSLKPEDTAVYYCAVPRSALLRAPYELYSWGQGTQVTVSS” the value was “low polyreactivity”.
As for “QVQLVESGGGLVQAGGSLRLSCAASGITLYGYVMGWYRQAPGKERELVAAISASGGRTHYADSVKGRFTISRDNAKNTVYLQMNSLKPEDTAVYYCARAGSRSPGGYDYWGQGTQVTVSS”, the “polyreactivity (PSR sort gate)” value is reported as “high polyreactivity”.
In the case of “QVQLVESGGGLVQAGGSLRLSCAASGITLYNYAMGWYRQAPGKERELVAAISLSGGRTYYADSVKGRFTISRDNAKNTVYLQMNSLKPEDTAVYYCAADWLNSDPYNYWGQGTQVTVSS” it was “low polyreactivity”; in that of “QVQLVESGGGLVQAGGSLRLSCAASGITLYNYAMGWYRQAPGKERELVAAISLSGGRTYYADSVKGRFTISRDNAKNTVYLQMNSLKPEDTAVYYCAAETDFVWSAPQLAYKVYYWGQGTQVTVSS”, “low polyreactivity”.
As for “QVQLVESGGGLVQAGGSLRLSCAASGITLYRYVMGWYRQAPGKERELVAAISGRGTSTYYADSVKGRFPISRDNAKNTVYLQMNSLKPEDTAVYYCNAEYTKTGALVIPYTYYYAEDYWGQGTQVTVSS”, the “polyreactivity (PSR sort gate)” value is recorded as “low polyreactivity”.
In the case of “QVQLVESGGGLVQAGGSLRLSCAASGITNTHYAMGWYRQAPGKERELVAAITSSGRTYYADSVKGRFTISRDNAKNTVYLQMNSLKPEDTAVYYCAAEHSWYYGLLGYWGQGTQVTVSS” it was “high polyreactivity”.
In the case of “QVQLVESGGGLVQAGGSLRLSCAASGITSARYAMGWYRQAPGKERELVAAITLSGVRTYYADSVKGRFTISRDQAKNTVYLQMNSLKPEDTAVYYCNTVYYSKWGQGTQVTVSS” it was “low polyreactivity”; in that of “QVQLVESGGGLVQAGGSLRLSCAASGITSDQNAMGWYRQAPGKERELVAAITRGGTTYYADSVKGRFTISRDNAKNTVYLQMNSLKPEDTAVYYCNARYYFRKQVRPFHIRYDYWGQGTQVTVSS”, “low polyreactivity”.
For “QVQLVESGGGLVQAGGSLRLSCAASGITSEYNTMGWYRQAPGKERELVAGISYRGGSTYYADSVKGRFTISRDNAKNTVYLQMNSLKPEDTAVYYCAKSFKRWRYGNPDYYWGQGTQVTVSS” the value was “high polyreactivity”; for “QVQLVESGGGLVQAGGSLRLSCAASGITSGTYAMGWYRQAPGKERELVAGISRSVTRTYYADSVKGRFTISRDNAKNTVYLQMNSLKPEDTAVYYCNTYVVRRPGYGYWGQGTQVTVSS”, “high polyreactivity”.
As for “QVQLVESGGGLVQAGGSLRLSCAASGITSKQYAMVWYRQAPGKERELVAAISGSGTRTYYADSVKGRFTISRDNAKNTVNLQMNSLKPEDTAVYYCAAYGYSRCHDDWGQVTQVTVSS”, the “polyreactivity (PSR sort gate)” value was “high polyreactivity”.
In the case of “QVQLVESGGGLVQAGGSLRLSCAASGITSQTYAMGWYRQAPGKERELVAGISASGGRTFYADSVKGRFTFSRDHAKNTVYLQMNSLKPEDTAVYYCNKLSSDSYNYWGQGTQVTVSS” it was “high polyreactivity”.
For “QVQLVESGGGLVQAGGSLRLSCAASGITSSYAMGWYRQAPGKERALVAAISRGGSTYYADSVKGRFTISRDNAKNTVSLQMNSLKPEDTAVYYCNKRRYPYGWGQGTQVTVSS” the value was “high polyreactivity”; for “QVQLVESGGGLVQAGGSLRLSCAASGITSWYYAMGWYRQAPGKERELVAAITSDGRTNYADSVMGRFTISRDNAKNTVYLQMNSLKPEDTAVYYCAVARYPYRYDYWGQGTQVTVSS”, “high polyreactivity”; for “QVQLVESGGGLVQAGGSLRLSCAASGITSWYYAMGWYRQAPGKERELVAAITSDGSTYYADSVKGRFTISRDNAKNTVYLQMNSLKPEDTAVYYCAAERDYWIPDSYLVGMDYWGQGTQVTVSS”, “low polyreactivity”.
For “QVQLVESGGGLVQAGGSLRLSCAASGITVDSNAMGWYRQAPGKDRELVAAISSTGSTDYADSVKGRFTISRDNAKNTVYLQMNSLKPEDTAVYYCAADSRYYYYGYKISGDYDSWGQGTQVTVSS” the value was “low polyreactivity”; for “QVQLVESGGGLVQAGGSLRLSCAASGITYGRYTMGWYRQAPGKERELVAAITNGDITDYADSVKGRFTISRDNAKNTVYLQMNSLKPEDTAVYYCAALLLYQNDHWGQGTQVTVSS”, “high polyreactivity”; for “QVQLVESGGGLVQAGGSLRLSCAASGITYGTYAMGWYRQAPGKERELVARITGSGGRTYYADSVKGRFTISRDNAKNTVYLQMISLKPEDTAVYYCAAETWRRYLFGYWGQGTQVTVSS”, “high polyreactivity”.
As for “QVQLVESGGGLVQAGGSLRLSCAASGITYGYYAMGWYRQAPGKERELVATITDGGGTKYADSVKGRFTISRDNAKNTVYLQMNSLKPEDTAVYYCAAGLRHVYATEYDYWGQGTQVTVSS”, the “polyreactivity (PSR sort gate)” value is reported as “low polyreactivity”.
For “QVQLVESGGGLVQAGGSLRLSCAASGIYYNAMGWYRQAPGKERELVAAITTGDRTNYADSVKGRFTISRDNAKNTVYLQMNCLKPEDTAVYYCNAVVERLSSTARDFAYDYWGQGTQVTVSS” the value was “low polyreactivity”.
For “QVQLVESGGGLVQAGGSLRLSCAASGKIFSYNAMGWYRQAPGKERELVAAISRSGGSTYYADSVKGRFTISRDNAKNTVYLQMNSLKPEDTAVYYCAADWRGRKYDYWGQGTQVTVSS”, the “polyreactivity (PSR sort gate)” value was “high polyreactivity”.
On to “QVQLVESGGGLVQAGGSLRLSCAASGLIFADYVMGWYRQAPGKERELVATINQGGGSTYYADSVKGRFTISRDNAKNTVYLQMNSLIPEDTAVYYCAATWALLYAIFESYDYWGQGTQVTVSS”, for which the “polyreactivity (PSR sort gate)” value is “low polyreactivity”.
In the case of “QVQLVESGGGLVQAGGSLRLSCAASGLIFAKYAMGGYRQAPGKERELVAAISYSGGSTFYADSVKGRFTISRDNAKNTVYLQMNSLKPEDTAVYYCAARDSRVGYYWFVRKEYYYWGQGTQVTVSS” it was “high polyreactivity”; in that of “QVQLVESGGGLVQAGGSLRLSCAASGLIFANNAMGWYRQAPGKERELVAVISRGGRTYYADSVKGRFTISRDNAKNTVYLQMNSLKPEDTAVYYCAKPVLVGLGSRYDYWGQGTQVTVSS”, “high polyreactivity”.
In the case of “QVQLVESGGGLVQAGGSLRLSCAASGLIFARYVMGWSRQAPGKERELVADIDKGGGSTYYADSVKGRFTISRDNAKNTVYLQMNSLKPEDTAVYYCNADFDGWWWDDYWGQGTQVTVSS” it was “high polyreactivity”; in that of “QVQLVESGGGLVQAGGSLRLSCAASGLIFASYAMGWYRQAPGKERELVAAISWSGGSTYYADSVKGRFTISRDNAKNTVYLQMNSLKPEDTAVYYCAAKRYAYGSLDYWGQGTQVTVSS”, “high polyreactivity”; in that of “QVQLVESGGGLVQAGGSLRLSCAASGLIFATNAMGWYRQAPGKERELVATITRSAGRTYYADSVKGRFTISRDNAKNPVYLQMNSLKPEDTAVYYCAASYWDTEPGYREYDYWGQGTQVTVSS”, “low polyreactivity”.
For “QVQLVESGGGLVQAGGSLRLSCAASGLIFATYAMGWYRQAPGKERELVAAISIRGGITYYADSVKGRFTISRDNAKNTVYLQMNSLKPEDTAVYYCAARYSRAGISHRMDYWGQGTQVTVSS” the value was “high polyreactivity”; for “QVQLVESGGGLVQAGGSLRLSCAASGLIFAVYTMGWYRQAPGKERELVAAITRRSTRTYYADSVKGRFTISRDNAKNTVYLQMNSLKPEDTAVYYCAADRGSSGAAFEYWGQGTQVTVSS”, “low polyreactivity”.
